Measurements published in patent US20070065890A1, “Method for promoting formation of facultative heterochromatin” (priority 2005, published 2007).

Experiments:
[1] = target: T1, recombinant human H1b (Homo sapiens, UniProt P10412); assay: In vitro deacetylation of p300-acetylated recombinant H1b by SirT proteins; format: biochemical; conditions: equal NAD+-exchange units measured using acetylated BSA as substrate
T1 construct: Human histone H1b and H1° were inserted into HA-Pet30c; HA (N); made in house; host or cells: E. coli BL21 (DE3)
Description: (§1) Detection of H1 acetylation was performed by using 4 μg of histone H1 (Upstate Biotechnology, Inc., Lake Placid, N.Y.) as an acetylated substrate for SirT1 in the NER. Deacetylation was determined by first performing a deacetylation assay using 20 and 40 μg of H1 and 6 nmol of SirT1. H1 was then isolated in the supernatant of chilled 5% perchloric acid, TCA precipitated (Albig, et al. (1998) FEBS Lett. 435:245-250), and resuspended in buffer C containing 100 mM KCl. Deacetylated H1 was then used in a subsequent NER. In vitro acetylation of H1 or recombinant H1b expressed in E. coli was carried out by incubating 10 μg H1 with 2 nmol baculovirus-generated p300 in the presence of 0.875 μCi [H^3]-Ac-CoA (Amersham, Piscataway, N.J.) in HAT buffer (75 mM Tris-HCl [pH 8.8], 135 mM NaCl). Deacetylation was carried out with the specified enzyme as above using 1 μg of the labeled Hi. […] Counts were then determined by liquid scintillation (PERKINELMER, Wellesley, Mass.) . […] In vivo H1 acetylation was analyzed by treating 293 cells for 18 hours in media containing 5 mM nicotinamide. H1 was purified as described (Albig, et al. (1998) supra) and analyzed in the NER. […]
(§2) SirT1 activity on histone H1 was directly tested in vitro. […] The same result was observed using recombinant human H1b; however, specificity was also scored in this assay using different SirT proteins.

[2] = tested on: histone H1; assay: In vitro deacetylation of p300-acetylated [3H]-labelled H1; format: biochemical; conditions: H1 acetylated by p300-HAT with [3H]-AcCoA, incubated with different amounts of SirT1; plateau reached
Description: as §1, §2

T1 sequence (P10412 2-219): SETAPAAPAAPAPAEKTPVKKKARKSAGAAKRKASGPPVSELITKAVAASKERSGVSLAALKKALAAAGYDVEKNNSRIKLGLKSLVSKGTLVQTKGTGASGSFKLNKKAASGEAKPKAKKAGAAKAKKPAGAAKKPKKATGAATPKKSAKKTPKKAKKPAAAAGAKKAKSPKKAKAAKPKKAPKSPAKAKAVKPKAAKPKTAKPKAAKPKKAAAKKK

How did the H1b deacetylation [1] turn out when “SirT1: Human sirtuin type 1 protein, SEQ ID NO:1; purified recombinant, baculovirus-expressed” was run?
The H1b deacetylation was “H1b deacetylation is specific for SirT1”.

And the “total label in H1 released” value [2]?
Its value is “up to 70%”.
